Results reported in the supplement of paper PMC9170038.

Test system: MS2 coat protein
Experiment: apparent KD of MS2 coat protein; designed switch direction (-1 OFF switch, 1 ON switch): -1; higher = weaker reporter binding
Procedure, shortened: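 Stalled E. coli RNA polymerase transcribed designed RNA switches on Illumina chips, which were then titrated with SNAP-549-labelled MS2 coat protein, doubling from 0.7 or 1.5 nM to 3 µM. Steps lasted from 0.8–1.5 h at the lowest concentration to 10–20 min at the highest. The apparent KD is each design's median over clusters of curve-fitted normalised fluorescence.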

[1] = input ligand: microRNA oligo, concentration not stated
[2] = Eterna round: R95, input ligand: microRNA oligo, concentration not stated

Sequence | apparent KD of MS2 coat protein (input ligand: FMN 200 uM) | apparent KD of MS2 coat protein [1] | apparent KD of MS2 coat protein (input ligand: none) | apparent KD of MS2 coat protein [2] | apparent KD of MS2 coat protein (Eterna round: R95, input ligand: FMN 200 uM) | apparent KD of MS2 coat protein (Eterna round: R95, input ligand: none)
GAGAGGAGUGUAGGAUAUUUAAGGGAGGAGGAGGGAGAAGGACAUGAGGAUCACCCAUGUAGGAAGAGAGGAGGAGUACAGGAG [Default title] (Eterna round: R96, puzzle: Exclusion NG 1) | 46.1 nM | 19.3 nM | 32.3 nM | – | – | –
CUAGCGAUUGUAGGAUAUCGGACUGUUUCAGUCUGAGAAGGACAUGAGGAUCACCCAUGUGAAGGAUCGUGAGAUCCACGCUAG [JL ENG1 3.79] (Eterna round: R96, puzzle: Exclusion NG 1) | 112 nM | 17.9 nM | 22 nM | – | – | –
CAUAGUUACUCAGGAUAUACUACAUGAGGAUCACCCAUGUAAUAAAUGAGAAUUUCGAAUGUAUAGUAGAAGGGAGAAAUCUAC [Ostracism 56 - Jieux - Exclusion NG 2] (Eterna round: R96, puzzle: Exclusion NG 2) | 18.3 nM | 14.7 nM | 23.8 nM | – | – | –
UACAUGAGGAUCACCCAUGUUUUGUCGUGUAUGGUAUUUAUCUAGGAUAUCACGUUAUUUAUUUAUGAGAAGGAGAAUAUUAAU [JMF's solution 26] (Eterna round: R96, puzzle: Exclusion NG 3) | 38.9 nM | 17.1 nM | 39 nM | – | – | –
AGAGUGGUGCGAGGAUAUACAUGAGGAUCACCCAUGUAAACGUGUGAGGCAAAGCCUCACACGAUGUAGAAGGCGCACUACUCA [Mat - Exclusion NG 2 - Mod of JL - D15] (Eterna round: R96, puzzle: Exclusion NG 2) | 17.3 nM | 9.9 nM | 15.8 nM | – | – | –
CAUGAUUGGCGAGGAUAUUGACCUAGUUAGCGACGAGAAGGCGCCUGUCACAUGAGGAUCACCCAUGUGAAUCUGGUGAAAGAG [Ex NG1 #92] (Eterna round: R96, puzzle: Exclusion NG 1) | 21.6 nM | 13.3 nM | 18.3 nM | – | – | –
ACAUGUGUUGUAGGAUAUAGUGGACAUGAGGAUCACCCAUGUUGAUUCAUGUCUAUGGAAACGUACUAGAAGGACGACAAUAUG [Ex NG2 #18] (Eterna round: R96, puzzle: Exclusion NG 2) | 806 nM | 875 nM | 1050 nM | – | – | –
AGGGACUAAGGAUAUACUUAGGAGAUAAACGACUGGUGAACACUUGAGGAUCACCCAAGUAGAAGGUAGUCAAA [Enonsoor] (Eterna round: R97, puzzle: Exclusion 2) | 135 nM | – | 30.4 nM | – | – | –
CUGAACCCGGUAGGAUAUAUUGUGGGCAAGCGUGGAACGACAUGAGGAUCACCCAUGUAAUUUAGGUAGAAGGGCCGAGAGAUU [Excl-NG2-LRO12] (Eterna round: R96, puzzle: Exclusion NG 2) | 32.5 nM | 41.5 nM | 41.5 nM | – | – | –
AGAGAAUACUCAGGAUAUGUGAAUAGAUAGAGAACAGAAGGGAGACAUGAGGAUCACCCAUGUGAAGUCUUGAGGCUGCAUGGA [Prohibition 23 - Jieux - Exclusion NG 1] (Eterna round: R96, puzzle: Exclusion NG 1) | 403 nM | 408 nM | 337 nM | – | – | –
UUCAGGCGAGGAUAUCCAUGAAGUAACAUGAGGAUCACCCAUGUUCGCUGUUACUCCGAAGGAGAAGGUGCUCUGG [Eternabot (L2) Solution 25] (Eterna round: R97, puzzle: Exclusion 5) | 196 nM | – | 100 nM | – | – | –
AUGACCUAAGGAUAUACAUGAGGAUCACCCAUGUCAGGUAAGCCUGUCCGCGGUGCAUGUAGAAGGUAGCUACC [EX3 A.27] (Eterna round: R97, puzzle: Exclusion 3) | 122 nM | – | 116 nM | – | – | –
AUAAGCCCGGCAGGAUAUCACAGGUUGCCGGGUAUCAACAUGAGGAUCACCCAUGUACACCUGCUUGAGAAGGGCCCAAGGGCG [Inarza] (Eterna round: R96, puzzle: Exclusion NG 2) | 163 nM | 69.6 nM | 80.3 nM | – | – | –
CACCUACAUGAGGAUCACCCAUGUCAGGAUAUCUUUGCUAAUAUGAAUAGAUGCGUAAAGAGAAGGGACAUUUC [EX1 C.8] (Eterna round: R97, puzzle: Exclusion 1) | 27 nM | – | 14.9 nM | – | – | –
GCACGGAGUGUAGGAUAUUAGUGCGAUUAGCACUGAGAAGGACAUGAGGAUCACCCAUGUUCCUCAAUAACAUACCUUCCGUGC [Eli exng1 - 042] (Eterna round: R96, puzzle: Exclusion NG 1) | – | 9.5 nM | – | – | – | –
GGUCCACGAGGAUAUCGAUUAUAGUACAUGAGGAUCACCCAUGUUGUCCAGGUUUCGUUUCGAGAAGGCGUGGGUU [LRO-Ex5-01] (puzzle: Exclusion 5) | – | – | – | 88.1 nM | – | –

Sequence | apparent KD of MS2 coat protein (input ligand: FMN 200 uM) | apparent KD of MS2 coat protein [1] | apparent KD of MS2 coat protein (input ligand: none) | apparent KD of MS2 coat protein [2] | apparent KD of MS2 coat protein (Eterna round: R95, input ligand: FMN 200 uM) | apparent KD of MS2 coat protein (Eterna round: R95, input ligand: none)
CAUUCACAUGAGGAUCACCCAUGUCAGGAUAUAGUCGAUAUAUGGAAACAUAUAUCGACUAGAAGGGACUAGCG [Jieuxxlusion 13 - Jieux - Exclusion 1] (Eterna round: R97, puzzle: Exclusion 1) | 152 nM | – | 52.6 nM | – | – | –
UUAGAUAGGUCAGGAUAUCGAUGAUUGAAUAGUAUGAUUUACAUGAGGAUCACCCAUGUUAAAUACGAGAAGGGACGUUAGAUU [JR_ExcNG2_Sub021] (Eterna round: R96, puzzle: Exclusion NG 2) | 17.9 nM | 17.9 nM | 21.3 nM | – | – | –
UAAAUAAAUGUAGGAUAUCUGCACGAUUAGUGCAGAGAAGGACAUGAGGAUCACCCAUGUAUAGUAGCUUCGGCUACAAAUAAU [ENG1-C1] (Eterna round: R96, puzzle: Exclusion NG 1) | 89.9 nM | 51.9 nM | 71.2 nM | – | – | –
GGUACUCAAAGAGUACCAAUACGAACAUGAGGAUCACCCAUGUAGGAUAUGCUACUCAAAGAGUAGCAGAAGGAUAUGAUCCAU [Far Half Aptamer v13] (Eterna round: R96, puzzle: Exclusion NG 3) | – | 60.5 nM | – | – | – | –
GAUGCACAUGAGGAUCACCCAUGUGAGGAUAUCAUUCCUAGAUCAGUCGGUCAGGAAAUGAGAAGGCGCCGGGA [Eternabot (L2) Solution 5] (Eterna round: R97, puzzle: Exclusion 1) | 28.6 nM | – | 23.6 nM | – | – | –
UACAUGAGGAUCACCCAUGUUUUGUCGUGUAUGGUAUUUAUCUAGGAUAUCAAUUGAUUUAGUUAUGAGAAGGAGAAUAUUAAU [JMF's solution 62] (Eterna round: R96, puzzle: Exclusion NG 3) | 27.2 nM | 20.6 nM | 30.1 nM | – | – | –
GUGUAACUACACGGGCUCAACAUGAGGAUCACCCAUGUCAUACACGCAAGCUUUUUGCUUGUCUUAUCUGUCCGUGU [Cegeesre] (puzzle: Sensor v3, turn-off variant 1) | – | – | – | 12.2 nM | 12.4 nM | 11.5 nM
UAUUCUAGAUAGGAUAUACUUUUUUUUUUUUUCGUAGAAGGAUCUACAUGAGGAUCACCCAUGUUUUCAGCAGU [JR_E6_Sub012] (Eterna round: R96, puzzle: Exclusion 6) | 99.6 nM | 65.7 nM | 71.1 nM | – | – | –
UUAUUAAUUAAGACUGCAAGAUCACAUGAGGAUCACCCAUGUCAGGAUAUCAGCUCGUUUAGAGCUGAGAAGGGACAAGCAGUC [ExNG3/15-A2] (Eterna round: R96, puzzle: Exclusion NG 3) | 337 nM | 98 nM | 94.4 nM | – | – | –
ACUCGACAUGAGGAUCACCCAUGUGAGGAUAUGGCCUGUAUGGCGUGAGCUGGCUAAAUCAGAAGGCGCGUGGG [salish99_ex1_r4_049] (Eterna round: R97, puzzle: Exclusion 1) | 222 nM | – | 194 nM | – | – | –
CGUAUGUGAGGAUAUGGUCUCGAUGACAUGAGGAUCACCCAUGUAACAUGGGACUUGUGACUAGAAGGCACUAACG [JR_Ex5_Sub023] (Eterna round: R97, puzzle: Exclusion 5) | 29.1 nM | – | 17.4 nM | – | – | –
GUCAGCUCGUCAGGAUAUACAUGAGGAUCACCCAUGUGGUCAUUAGCAGCUUCGGCUGCAUUAAUGUAGAAGGGACGAGCUGAC [ENG2/8-B1] (Eterna round: R96, puzzle: Exclusion NG 2) | 1120 nM | 357 nM | 591 nM | – | – | –
GCUUGCGAAGUAAGGAUAUCGGUCCGAAAGGACUACGAGAAGGUACAUGAGGAUCACCCAUGUGCGAGCAGAAU [Mod of Zala 24 - Jieux - Brourd's mod of Exclusion 4] (Eterna round: R97, puzzle: Brourd's mod of Exclusion 4) | 19.6 nM | – | 23 nM | – | – | –
ACAUGAGGCGAAGGAUAUCUUUAGAGGAUUACCAGAGAAGGUCGACAUGAGGAUCACCCAUGUACAUGAGGGUCUUGAAUGUUA [9th something] (Eterna round: R96, puzzle: Exclusion NG 1) | 245 nM | 199 nM | 250 nM | – | – | –
UUUCUCUGGGCGUCUUCUUACAUGAGGAUCACCCAUGUUUCGCAGGAUAUGCUAUAGUGUUAGAUGCAGAAGGGCGUUUGUUUU [JR_ExcNG3_Sub079] (Eterna round: R96, puzzle: Exclusion NG 3) | 262 nM | 85.8 nM | 92.5 nM | – | – | –
GUGGCACUAGUGAGGAUAUGGAAAUUGACAGAUAUCCAGAAGGCACAUGAGGAUCACCCAUGUCGAAUCCAGCA [Eternabot (L1) Solution 81] (Eterna round: R97, puzzle: Brourd's mod of Exclusion 4) | 36.9 nM | – | 22.8 nM | – | – | –
